Experimental findings from patent US20240124572A1 (Bayer, published 2024) are described below.

A word on the IC50: it is the concentration at which inhibition is half-maximal. As a reminder, the Kd is a measure of binding affinity in units of concentration. A higher Kd goes with a looser complex.

The target of assay [1] is murine IL-11 (Invigate, e.g., lot #C210819-09) (mouse) (UniProt P47873). The assay can be described thus: Tri-complex ELISA (mIL-11, mIL-11Ra-Fc, mgp130-Fc).
For assay [2], the target named is human IL-11 (Invigate, e.g., lot #C121021-19) (human) (UniProt P20809). As to the kind of experiment: Tri-complex ELISA (hIL-11, mIL-11Ra-Fc, hgp130-Fc). On the technique in general: In an ELISA, binding on a coated surface is turned into a signal by an enzyme label.
The target is the same in assay [3]. As to the kind of experiment: Di-complex ELISA (hIL-11 coated, canine IL11RA-hFc).
Assay [4] has as its target murine IL-11 (Invigate, e.g., lot #C210819-09) (mouse) (UniProt P47873). As to the kind of experiment: Di-complex ELISA (mIL-11 coated, canine IL11RA-hFc).
The target of assay [5] is human IL-11 (Invigate, e.g., lot #C121021-19) (human) (UniProt P20809). The assay can be described thus: cell-based or functional assay.
Assay [6] concerns the target murine IL-11 (Invigate, e.g., lot #C210819-09) (mouse) (UniProt P47873). As to the kind of experiment: cell-based or functional assay.
Assay [7] addresses human IL-11 (Invigate, e.g., lot #C121021-19) (human) (UniProt P20809). The assay can be described thus: SPR, antibody captured, single IL-11 concentration 200 nM. For orientation: SPR reads the build-up and loss of mass on a sensor chip optically.
Assay [8] concerns the target murine IL-11 (Invigate, e.g., lot #C210819-09) (mouse) (UniProt P47873). The assay is described as above.
Assay [9] addresses human IL-11 (human) (UniProt P20809). The assay can be described thus: Di-complex ELISA, competitor canine IL11RA-hFc, IL-11 immobilised.
The target of assay [10] is T1, murine IL-11 (Invigate, e.g., lot #C210819-09) (mouse, UniProt P47873 22-199).
T1 construct: Biotinylated and captured on streptavidin plates in the Di-complex ELISA; unmodified analyte in SPR; also called mIL11; mIL-11
T1 sequence: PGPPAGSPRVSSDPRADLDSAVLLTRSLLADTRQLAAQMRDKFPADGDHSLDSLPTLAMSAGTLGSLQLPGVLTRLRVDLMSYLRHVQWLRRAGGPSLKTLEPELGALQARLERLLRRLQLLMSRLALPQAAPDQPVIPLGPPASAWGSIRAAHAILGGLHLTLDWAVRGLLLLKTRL
The assay can be described thus: Tri-complex ELISA (mIL-11, mIL-11Ra-Fc, mgp130-Fc).

In assay [11] the target is cynomolgus IL-11 (cynomolgus) (UniProt P20808). The assay can be described thus: cell-based or functional assay.
Assay [12] has as its target human IL-11 (human) (UniProt P20809). As to the kind of experiment: cell-based or functional assay.
The target of the next assay is T2, murine IL-11 (mouse, UniProt P47873 22-199).
T2 construct: bought from Invigate; also called mIL-11; mIL11
T2 sequence: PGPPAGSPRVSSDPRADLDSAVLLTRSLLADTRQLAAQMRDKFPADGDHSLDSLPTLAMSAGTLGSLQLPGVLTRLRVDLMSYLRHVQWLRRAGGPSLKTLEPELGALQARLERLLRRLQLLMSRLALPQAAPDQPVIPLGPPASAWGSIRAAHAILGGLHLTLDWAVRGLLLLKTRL
The assay can be described thus: SPR, antibody captured, IL-11 analyte. On the procedure:
Antibodies were captured via anti-mouse Fc IgGs (“Mouse antibody capture kit, Order No. BR100383, Cytiva) covalently amine coupled to a Series S CMS sensor chip (Cytiva). The amine coupling was carried out according to the manufacturer's instructions using 1-ethyl-3-(3-dimethylaminopropyl) carbodiimide hydrochloride (EDC), N-hydroxysuccinimide ([…]) and ethanolamine HCl, pH 8.5 (“Amine Coupling Kit” BR-1000-50, Cytiva). Human IL-11 (Invigate, e.g., lot #C121021-19), and murine IL-11 (Invigate, e.g., lot #C210819-09) were used as analytes. […] Based on that experiment an IL-11 concentration range was chosen to optimally determine kinetics and affinity of anti-IL-11 antibodies in multicycle kinetics mode. The sensor surface was regenerated with glycine pH 1.7 after each antigen injection. Obtained sensorgrams were double referenced (subtraction of reference flow cell signal and buffer injection) and were fitted to a 1:1 Langmuir binding model to derive kinetic data using the Biacore T200 Evaluation software or the Biacore Insight software.
42 hits from the IL-11 and IL-2Ra screening analysis were selected, expressed by transient transfection of mammalian cells and purified as described in Example 15. Antibodies were then tested for human IL-11 and murine IL-11 binding by SPR as described in Example 16.

Turning to “MA5-30696 (Thermo Fisher Scientific, clone 12) (antibody)”, the Efficacy (%) in assay [1] worked out at 4.3%; in [2], 4.7%; in [3], 8.1%; in assay [4], 3.1%. Moreover, the results for the Efficacy (%)*, RGA in assay [5] and in assay [6] were 4.9% and 17.2%, respectively.

With LS-C104441 (LS-bio) (antibody), the Efficacy (%) in assay [1] came to 98.4%; in assay [2], 65.6%; in [3], 71.5%; in [4] it was 91.2%. The IC50 in [1] amounted to 3.8 nM; in assay [2], 20 nM; in assay [3], 5.3 nM; in assay [4], 3.5 nM. The Kd in [7] worked out at 3.9 nM; in assay [8], 2.2 nM. In addition, the Efficacy (%)*, RGA in [5] was 42.6%; in assay [6], 88%. The molecule further had an IC50 [M], RGA in assay [6] of 3.9e-09 M.

For the molecule “GTX34009 (Genetex, clone 6D9A1) (antibody)”, the Efficacy (%) was determined as 0% in [1], 1.1% in assay [2], 10.3% in assay [3] and 11.7% in [4]. Besides, the Efficacy (%)*, RGA was 21.3% in [5] and 0% in assay [6].

As for “GTX52814 (Genetex, clone 9T27) (antibody)”, the Efficacy (%) in [1] came out at 106%; in assay [2] it was 36.9%; in [3] it was 74.9%; in [4], 89.9%. Besides, the IC50 was 17 nM in assay [1], 14 nM in assay [2], 1.9 nM in [3] and 4.7 nM in [4]. Further, the figures for the Kd in assay [7] and in [8] were 3.3 nM and 2 nM, respectively. Also, the results for the Efficacy (%)*, RGA in assay [5] and in assay [6] were 5.1% and 75.5%, respectively.

With “MA5-30695 (Thermo Fisher Scientific, clone 9) (antibody)”, the Efficacy (%) in [1] was determined as 1.5%; in assay [2], 0%; in assay [3] it was 0%; in assay [4], 0%. For the same molecule, the Efficacy (%)*, RGA in [5] is 23.9%; in assay [6] it was 15.6%.

Consider “TPP-14250 (R&D Systems, #MAB218) (antibody)”, for which, in [1], the Efficacy (%) was 81.1% and the IC50 stood at 8 nM. In [2], this molecule gave an Efficacy (%) of 81.1% and an IC50 of 15 nM. In [5], this molecule came in with an Efficacy (%), Stat3 reporter gene assay of 27.1% and an IC50 [M], Stat3 reporter gene assay of 2.4e-10 M. In addition, in assay [6], the Efficacy (%), Stat3 reporter gene assay was 69.1% and the IC50 [M], Stat3 reporter gene assay worked out at 1.4e-07 M.

Regarding “LS-C193526 (LS-bio, clone KT8) (antibody)”, the Efficacy (%) amounted to 90.3% in assay [1], 78.5% in [2], 90.1% in assay [3] and 96.2% in assay [4]. Also, the IC50 worked out at 6.6 nM in assay [1], 10 nM in [2], 10 nM in [3] and 6.5 nM in assay [4]. The Kd in assay [7] is 6.3 nM; in assay [8] it was 6.2 nM. In addition, the Efficacy (%)*, RGA in assay [5] is 52.7%; in assay [6], 88.3%. Moreover, the IC50 [M], RGA is 5e-08 M in [5] and 5.6e-09 M in assay [6].

For the molecule “MA5-23711 (Thermo Fisher Scientific, clone 22616) (antibody)”, the Efficacy (%) in assay [1] was determined as 62.3%; in assay [2], 34.1%; in [3], 51.1%; in assay [4] it was 70.5%. In addition, the results for the IC50 in [2], in assay [3] and in assay [4] were 19 nM, 60 nM and 29 nM, respectively. Also, the Kd in assay [7] came to 3.6 nM; in assay [8], 2 nM. Moreover, the results for the Efficacy (%)*, RGA in assay [5] and in [6] were 19.9% and 47.6%, respectively.

B1: TPP-18087 (antibody, mouse IgG1, V domains shown)
VH: EVQLLESGGGLVQPGGSLRLSCAASGFTFSHYDMNWLRQAPGKGLEWVGVISYDGSNKFYADFVKGRFTISRDNSKNTLYLQMNSLRAEDTAVYYCARTPGSHFDYWGQGTLVTVSS
VL: QSVLTQPPSASGTPGQRVTISCSGSSSNIGNNAVNWYQQLPGTAPKLLIYYDDLLPSGVPDRFSGSKSGTSASLAISGLRSEDEADYYCSAWDDSLNGVVFGGGTKLTVLG
notes: mIgG1, Lambda
Take B1: the Efficacy (%) in the assay with human IL-11 (human) [9] is 0%; in assay [10], 25%. The results for the Efficacy (%) (RGA) (in assay [11]; with human IL-11 (human) [12]) were 47.7% and 47.8%, respectively.

B2: TPP-26333 (antibody, IgG1, V domains shown)
VH: EVQLLESGGGLVQPGGSLRLSCAASGFTFSSYGFHWVRQAPGKGLEWVSVISYDGSYKYYADSVKGRFTISRDNSKNTLYLQMNSLRAEDTAVYYCAAGVPDYWGQGTLVTVSS
VL: QSVLTQPPSASGTPGQRVTISCTGSSSNIGAGYDVHWYQQLPGTAPKLLIYSNNERPSGVPDRFSGSKSGTSASLAISGLRSEDEADYYCAAWDDSLNGPVFGGGTKLTVL
Turning to B2, in the assay with murine IL-11, the binding result was “no binding”.
